Data: the supplement of paper PMC11246515
± gives the standard deviation of the averaged measurements.

Assay: total protein half-life in vivo (active degradation + dilution); higher = more stable protein
[1] = wild type E. coli NCM3722, growth: C-lim chemostat, doubling time 6 h
[2] = wild type E. coli NCM3722, growth: C-lim chemostat, doubling time 12 h
[3] = E. coli NCM3722 delta-clpP delta-lon delta-hslV, growth: N-lim chemostat, doubling time 6 h
[4] = E. coli NCM3722 delta-clpP, growth: N-lim chemostat, doubling time 6 h
[5] = E. coli NCM3722 delta-hslV, growth: N-lim chemostat, doubling time 6 h
[6] = E. coli NCM3722 delta-lon, growth: N-lim chemostat, doubling time 6 h
[7] = E. coli NCM3722 delta-smpB, growth: N-lim chemostat, doubling time 6 h
[8] = wild type E. coli NCM3722, growth: C-lim chemostat, doubling time 3 h
[9] = wild type E. coli NCM3722, growth: N-lim chemostat, doubling time 6 h
[10] = wild type E. coli NCM3722, growth: N-lim chemostat, doubling time 12 h
[11] = wild type E. coli NCM3722, growth: P-lim chemostat, doubling time 6 h
[12] = wild type E. coli NCM3722, growth: P-lim chemostat, doubling time 12 h

Sequence | total protein half-life in vivo [1] [h] | total protein half-life in vivo [2] [h] | total protein half-life in vivo [3] [h] | total protein half-life in vivo [4] [h] | total protein half-life in vivo [5] [h] | total protein half-life in vivo [6] [h] | total protein half-life in vivo [7] [h] | total protein half-life in vivo [8] [h] | total protein half-life in vivo [9] [h] | total protein half-life in vivo [10] [h] | total protein half-life in vivo [11] [h] | total protein half-life in vivo [12] [h]
MLDIDKSTVDFLVTENMVQEVEKVLSHDVPLVHAIVEEMVKRDIDRIYFVACGSPLNAAQTAKHLADRFSDLQVYAISGWEFCDNTPYRLDDRCAVIGVSDYGKTEEVIKALELGRACGALTAAFTKRADSPITSAAEFSIDYQADCIWEIHLLLCYSVVLEMITRLAPNAEIGKIKNDLKQLPNALGHLVRTWEEKGRQLGELASQWPMIYTVAAGPLRPLGYKEGIVTLMEFTWTHGCVIESGEFRHGPLEIVEPGVPFLFLLGNDESRHTTERAINFVKQRTDNVIVIDYAEISQGLHPWLAPFLMFVPMEWLCYYLSIYKDHNPDERRYYGGLVEY [P0AC00] | 2.37 ± 0.41 | 2.71 | – | – | – | – | – | – | – | – | – | –
MLDKIDRKLLALLQQDCTLSLQALAEAVNLTTTPCWKRLKRLEDDGILIGKVALLDPEKIGLGLTAFVLIKTQHHSSEWYCRFVTVVTEMPEVLGFWRMAGEYDYLMRVQVADMKRYDEFYKRLVNSVPGLSDVTSSFAMEQIKYTTSLPIE [P0ACJ5] | 5.09 ± 0.47 | 8.43 ± 3.3 | 5.92 ± 0.82 | 4.67 ± 0.26 | 4.43 ± 1.7 | 5.95 | 5.08 ± 0.24 | 3.37 ± 0.6 | 4.34 ± 0.2 | 9.01 ± 4.2 | 4.45 | 10.3 ± 3.2
MLDKLDAALRFQQEALNLRAQRQEVLAANIANADTPGYQARDIDFASELKKVMQRGRDATSVVALTMTSTQHIPAQALTPPTAELQYRIPDQPSLDGNTVDMDRERTQFADNSLQYQMSLSALSGQIKGMMNVLQSGN [P0ABW9] | – | – | – | – | – | – | – | 1.32 | – | – | – | –
MLDKLRSRIVHLGPSLLSVPVKLTPFALKRQVLEQVLSWQFRQALDDGELEFLEGRWLSIHVRDIDLQWFTSVVNGKLVVSQNAQADVSFSADASDLLMIAARKQDPDTLFFQRRLVIEGDTELGLYVKNLMDAIELEQMPKALRMMLLQLADFVEAGMKTAPETKQTSVGEPC | – | – | 3.71 ± 1.3 | 2.5 | – | – | 0.825 ± 0.014 | 0.352 ± 0.048 | – | – | 0.825 | –
MLDLFADAEPWQEPLAAGAVILRRFAFNAAEQLIRDINDVASQSPFRQMVTPGGYTMSVAMTNCGHLGWTTHRQGYLYSPIDPQTNKPWPAMPQSFHNLCQRAATAAGYPDFQPDACLINRYAPGAKLSLHQDKDEPDLRAPIVSVSLGLPAIFQFGGLKRNDPLKRLLLEHGDVVVWGGESRLFYHGIQPLKAGFHPLTIDCRYNLTFRQAGKKE | – | – | – | 4.32 | 2.76 | 3.17 | 3.02 ± 0.09 | – | 2.87 ± 0.47 | 4.66 ± 0.55 | 3.76 ± 0.13 | 5.89
MLEEYRKHVAERAAEGIAPKPLDANQMAALVELLKNPPAGEEEFLLDLLTNRVPPGVDEAAYVKAGFLAAIAKGEAKSPLLTPEKAIELLGTMQGGYNIHPLIDALDDAKLAPIAAKALSHTLLMFDNFYDVEEKAKAGNEYAKQVMQSWADAEWFLNRPALAEKLTVTVFKVTGETNTDDLSPAPDAWSRPDIPLHALAMLKNAREGIEPDQPGVVGPIKQIEALQQKGFPLAYVGDVVGTGSSRKSATNSVLWFMGDDIPHVPNKRGGGLCLGGKIAPIFFNTMEDAGALPIEVDVSNLNMGDVIDVYPYKGEVRNHETGELLATFELKTDVLIDEVRAGGRIPLIIGRGLTTKAREALGLPHSDVFRQAKDVAESDRGFSLAQKMVGRACGVKGIRPGAYCEPKMTSVGSQDTTGPMTRDELKDLACLGFSADLVMQSFCHTAAYPKPVDVNTHHTLPDFIMNRGGVSLRPGDGVIHSWLNRMLLPDTVGTGGDSHTRFPIGISFPAGSGLVAFAAATGVMPLDMPESVLVRFKGKMQPGITLRDLVHAIPLYAIKQGLLTVEKKGKKNIFSGRILEIEGLPDLKVEQAFELTDASAERSAAGCTIKLNKEPIIEYLNSNIVLLKWMIAEGYGDRRTLERRIQGMEKWLANPELLEADADAEYAAVIDIDLADIKEPILCAPNDPDDARPLSAVQGEKIDEVFIGSCMTNIGHFRAAGKLLDAHKGQLPTRLWVAPPTRMDAAQLTEEGYYSVFGKSGARIEIPGCSLCMGNQARVADGATVVSTSTRNFPNRLGTGANVFLASAELAAVAALIGKLPTPEEYQTYVAQVDKTAVDTYRYLNFNQLSQYTEKADGVIFQTAV | 4.71 ± 0.057 | 7.2 ± 0.21 | 5.12 ± 0.25 | 3.86 ± 0.1 | 3.56 ± 0.021 | 3.3 ± 0.063 | 2.96 ± 0.046 | 2.579 ± 0.021 | 3.578 ± 0.02 | 4.92 ± 0.14 | 3.56 ± 0.094 | 5.84 ± 0.098
MLELNAKTTALVVIDLQEGILPFAGGPHTADEVVNRAGKLAAKFRASGQPVFLVRVGWSADYAEALKQPVDAPSPAKVLPENWWQHPAALGATDSDIEIIKRQWGAFYGTDLELQLRRRGIDTIVLCGISTNIGVESTARNAWELGFNLVIAEDACSAASAEQHNNSINHIYPRIARVRSVEEILNAL [P0ADI7] | 5.75 ± 0.29 | 10.9 ± 0.94 | 5.53 ± 0.15 | 5.05 ± 0.3 | 4.968 ± 0.024 | – | 5.08 ± 0.54 | 3.07 ± 0.33 | 5.19 ± 0.59 | 9.838 ± 0.087 | 5.81 ± 0.12 | 12.7 ± 0.69
MLFTLKKVIGNMLLPLPLMLLIIGAGLALLWFSRFQKTGKIFISIGWLALLLLSLQPVADRLLRPIESTYPTWNNSQKVDYIVVLGGGYTWNPQWAPSSNLINNSLPRLNEGIRLWRENPGSKLIFTGGVAKTNTVSTAEVGARVAQSLGVPREQIITLDLPKDTEEEAAAVKQAIGDAPFLLVTSASHLPRAMIFFQQEGLNPLPAPANQLAIDSPLNPWERAIPSPVWLMHSDRVGYETLGRIWQWLKGSSGEPRQE [P0AB01] | 5.4 ± 0.28 | 10.5 ± 4.9 | 6.15 ± 0.43 | 6.08 ± 0.23 | – | 5.87 ± 0.097 | 5.72 ± 0.58 | 3.28 ± 0.37 | 6.09 ± 0.25 | – | 6.876 ± 0.0024 | 10.6 ± 2.9
